Measurements: US20140093973A1 (BOARD OF REGENTS OF THE UNIVERSITY OF OKLAHOMA, published 2014)
Where two headings read alike, the source gives them in different places. Ends that are not written are not given here.

How the values were obtained:
[1] = molecular target: T1, soluble HLA-A*4301 (sHLA-A*4301) (human); experiment: FP screen
T1 construct: Recombinant soluble class I with endogenous peptides, made as m1

[2] = molecular target: soluble HLA-A*0201 (sHLA-A*0201) (human); experiment: FP screen
soluble HLA-B*4002 [3] = molecular target: T2, soluble HLA-B*4002 (human); experiment: FP screen
T2 construct: Member of the panel of 53 single-specificity sHLA

soluble HLA-B*4501 [4] = molecular target: T3, soluble HLA-B*4501 (human); experiment: FP screen
T3 construct: Member of the panel of 53 single-specificity sHLA

soluble HLA-A*2601 [5] = molecular target: T4, soluble HLA-A*2601 (human); experiment: FP screen
T4 construct: Member of the panel of 53 single-specificity sHLA

soluble HLA-A*0101 [6] = molecular target: T5, soluble HLA-A*0101 (human); experiment: FP screen
T5 construct: Member of the panel of 53 single-specificity sHLA

soluble HLA-A*3002 [7] = molecular target: T6, soluble HLA-A*3002 (human); experiment: FP screen
T6 construct: Member of the panel of 53 single-specificity sHLA

soluble HLA-A*2301 [8] = molecular target: T7, soluble HLA-A*2301 (human); experiment: FP screen
T7 construct: Member of the panel of 53 single-specificity sHLA

soluble HLA-B*1801 [9] = molecular target: T8, soluble HLA-B*1801 (human); experiment: FP screen
T8 construct: Member of the panel of 53 single-specificity sHLA

[10] = molecular target: T9, soluble HLA-B*2705 (sHLA-B*2705) (human); experiment: FP screen
T9 construct: Recombinant soluble class I with endogenous peptides, made as m1; negative control

soluble HLA-B*1512 [11] = molecular target: T10, soluble HLA-B*1512 (human); experiment: FP screen
T10 construct: Member of the panel of 53 single-specificity sHLA

soluble HLA-B*4402 [12] = molecular target: T11, soluble HLA-B*4402 (human); experiment: FP screen
T11 construct: Member of the panel of 53 single-specificity sHLA

[13] = molecular target: T12, soluble HLA-A*6901 (sHLA-A*6901) (human); experiment: FP screen
T12 construct: Recombinant soluble class I with endogenous peptides, made as m1

soluble HLA-A*2402 [14] = molecular target: T13, soluble HLA-A*2402 (human); experiment: FP screen
T13 construct: Member of the panel of 53 single-specificity sHLA

soluble HLA-B*4001 [15] = molecular target: T14, soluble HLA-B*4001 (human); experiment: FP screen
T14 construct: Member of the panel of 53 single-specificity sHLA

soluble HLA-A*3601 [16] = molecular target: T15, soluble HLA-A*3601 (human); experiment: FP screen
T15 construct: Member of the panel of 53 single-specificity sHLA

soluble HLA-A*6601 [17] = molecular target: T16, soluble HLA-A*6601 (human); experiment: FP screen of 53 sHLA with FITC-peptide
T16 construct: Member of the panel of 53 single-specificity sHLA

soluble HLA-B*1501 [18] = molecular target: T17, soluble HLA-B*1501 (human); experiment: FP screen of 53 sHLA with FITC-peptide
T17 construct: Member of the panel of 53 single-specificity sHLA

soluble HLA-A*0301 [19] = molecular target: T18, soluble HLA-A*0301 (human); experiment: FP screen of 53 sHLA with FITC-peptide
T18 construct: Member of the panel of 53 single-specificity sHLA

soluble HLA-A*3402 [20] = molecular target: T19, soluble HLA-A*3402 (human); experiment: FP screen of 53 sHLA with FITC-peptide
T19 construct: Member of the panel of 53 single-specificity sHLA

soluble HLA-A*2902 [21] = molecular target: T20, soluble HLA-A*2902 (human); experiment: FP screen of 53 sHLA with FITC-peptide
T20 construct: Member of the panel of 53 single-specificity sHLA

soluble HLA-A*0301 [22] = molecular target: T18, soluble HLA-A*0301; experiment: FP competition against 1.8 nM FITC-labeled P1(A*0301), 42.1 µg/ml sHLA A*0301T (2798)
[23] = molecular target: soluble HLA-A*0201 (sHLA-A*0201) (human); experiment: FP screen; remark: listed apart in the source
soluble HLA-B*4002 [24] = molecular target: T2, soluble HLA-B*4002; experiment: FP screen; remark: listed apart in the source
soluble HLA-A*6601 [25] = molecular target: T16, soluble HLA-A*6601; experiment: FP screen
[26] = molecular target: T21, soluble HLA-A*6801 (sHLA-A*6801) (human); experiment: FP screen
T21 construct: Recombinant soluble class I with endogenous peptides, made as m1

soluble HLA-B*4501 [27] = molecular target: T3, soluble HLA-B*4501; experiment: FP screen; remark: listed apart in the source
soluble HLA-A*3002 [28] = molecular target: T6, soluble HLA-A*3002; experiment: FP screen; remark: listed apart in the source
soluble HLA-A*2301 [29] = molecular target: T7, soluble HLA-A*2301; experiment: FP screen; remark: listed apart in the source
soluble HLA-A*0301 [30] = molecular target: T18, soluble HLA-A*0301; experiment: FP screen
soluble HLA-B*1801 [31] = molecular target: T8, soluble HLA-B*1801; experiment: FP screen; remark: listed apart in the source
soluble HLA-B*1302 = molecular target: T22, soluble HLA-B*1302 (human); experiment: FP screen
T22 construct: Member of the panel of 53 single-specificity sHLA

[32] = molecular target: T9, soluble HLA-B*2705 (sHLA-B*2705); experiment: FP screen; remark: listed apart in the source
soluble HLA-B*1512 [33] = molecular target: T10, soluble HLA-B*1512; experiment: FP screen; remark: listed apart in the source
soluble HLA-B*4402 [34] = molecular target: T11, soluble HLA-B*4402; experiment: FP screen; remark: listed apart in the source
[35] = molecular target: T12, soluble HLA-A*6901 (sHLA-A*6901); experiment: FP screen; remark: listed apart in the source
soluble HLA-A*2402 [36] = molecular target: T13, soluble HLA-A*2402; experiment: FP screen; remark: listed apart in the source
soluble HLA-B*4001 [37] = molecular target: T14, soluble HLA-B*4001; experiment: FP screen; remark: listed apart in the source
soluble HLA-B*1501 [38] = molecular target: T17, soluble HLA-B*1501; experiment: FP screen of 53 sHLA with FITC-peptide; remark: listed apart in the source
soluble HLA-A*2601 [39] = molecular target: T4, soluble HLA-A*2601; experiment: FP screen of 53 sHLA with FITC-peptide
soluble HLA-A*0101 [40] = molecular target: T5, soluble HLA-A*0101; experiment: FP screen of 53 sHLA with FITC-peptide
soluble HLA-A*3402 [41] = molecular target: T19, soluble HLA-A*3402; experiment: FP screen of 53 sHLA with FITC-peptide; remark: listed apart in the source
soluble HLA-A*2902 [42] = molecular target: T20, soluble HLA-A*2902; experiment: FP screen of 53 sHLA with FITC-peptide; remark: listed apart in the source
soluble HLA-A*3601 [43] = molecular target: T15, soluble HLA-A*3601; experiment: FP screen of 53 sHLA with FITC-peptide

B1: SLFRAVIKK, FITC-labeled A3-like peptide (peptide)
peptide: SLFRAVIKK
modifications: also: FITC-labeled, position not given here
binding result [1]: no binding (tested: 100 ug/ml sHLA) | binding result [2]: no binding (tested: 100 ug/ml sHLA) | binding result (soluble HLA-B*4002 [3]): no binding (tested: 100 ug/ml sHLA) | binding result (soluble HLA-B*4501 [4]): no binding (tested: 100 ug/ml sHLA) | binding result (soluble HLA-A*2601 [5]): no binding (tested: 100 ug/ml sHLA) | binding result (soluble HLA-A*0101 [6]): no binding (tested: 100 ug/ml sHLA) | binding result (soluble HLA-A*3002 [7]): no binding (tested: 100 ug/ml sHLA) | binding result (soluble HLA-A*2301 [8]): no binding (tested: 100 ug/ml sHLA) | binding result (soluble HLA-B*1801 [9]): no binding (tested: 100 ug/ml sHLA) | binding result [10]: no binding (tested: 100 ug/ml sHLA) | binding result (soluble HLA-B*1512 [11]): no binding (tested: 100 ug/ml sHLA) | binding result (soluble HLA-B*4402 [12]): no binding (tested: 100 ug/ml sHLA) | binding result [13]: no binding (tested: 100 ug/ml sHLA) | binding result (soluble HLA-A*2402 [14]): no binding (tested: 100 ug/ml sHLA) | binding result (soluble HLA-B*4001 [15]): no binding (tested: 100 ug/ml sHLA) | binding result (soluble HLA-A*3601 [16]): no binding (tested: 100 ug/ml sHLA) | binding result (soluble HLA-A*6601 [17]): binds | binding result (soluble HLA-B*1501 [18]): binds | binding result (soluble HLA-A*0301 [19]): binds | binding result (soluble HLA-A*3402 [20]): binds | binding result (soluble HLA-A*2902 [21]): binds

B2: C2(A*0301) (peptide)
peptide: SLFRAVITK
IC50 (soluble HLA-A*0301 [22]): 518 nM

B3: YTDGVPLKY, FITC-labeled A1-like peptide (peptide)
peptide: YTDGVPLKY
modifications: also: FITC-labeled, position not given here
binding result [23]: no binding (tested: 100 ug/ml sHLA) | binding result (soluble HLA-B*4002 [24]): no binding (tested: 100 ug/ml sHLA) | binding result (soluble HLA-A*6601 [25]): no binding (tested: 100 ug/ml sHLA) | binding result [26]: no binding (tested: 100 ug/ml sHLA) | binding result (soluble HLA-B*4501 [27]): no binding (tested: 100 ug/ml sHLA) | binding result (soluble HLA-A*3002 [28]): no binding (tested: 100 ug/ml sHLA) | binding result (soluble HLA-A*2301 [29]): no binding (tested: 100 ug/ml sHLA) | binding result (soluble HLA-A*0301 [30]): no binding (tested: 100 ug/ml sHLA) | binding result (soluble HLA-B*1801 [31]): no binding (tested: 100 ug/ml sHLA) | binding result (soluble HLA-B*1302): no binding (tested: 100 ug/ml sHLA) | binding result [32]: no binding (tested: 100 ug/ml sHLA) | binding result (soluble HLA-B*1512 [33]): no binding (tested: 100 ug/ml sHLA) | binding result (soluble HLA-B*4402 [34]): no binding (tested: 100 ug/ml sHLA) | binding result [35]: no binding (tested: 100 ug/ml sHLA) | binding result (soluble HLA-A*2402 [36]): no binding (tested: 100 ug/ml sHLA) | binding result (soluble HLA-B*4001 [37]): no binding (tested: 100 ug/ml sHLA) | binding result (soluble HLA-B*1501 [38]): binds | binding result (soluble HLA-A*2601 [39]): binds | binding result (soluble HLA-A*0101 [40]): binds | binding result (soluble HLA-A*3402 [41]): binds | binding result (soluble HLA-A*2902 [42]): binds | binding result (soluble HLA-A*3601 [43]): binds
